This passage reports Km results from PMC7666189.

Substrate in this series: O=C(/C=C/c1ccc(O)c(O)c1)O[C@@H]1C[C@](O)(C(=O)O)C[C@@H](O)[C@H]1O
Description: purified protein. The following applies: 5-CQA as sole substrate (acyl donor and acceptor), 0-30 mM, enzyme from N. benthamiana, optimum pH 6.3 and 39.9 °C, pH and temperature of the Km assay not given.

B1: IbICS (Ipomoea batatas) (protein)
chain: CYSAVFGFGDSLTDAGNLIRLEPDGTVPHMYFPPYGETYFDKPTGRCSDGRLIVDLIAQHYGLPLPPPSIPASLEGDKNRLRAGVNFAVVGSRALDAQFYEQRDIFDTVTNVSMTDQLNWFKELLPSLCSSPHDCKELLDGSLFVLGEFGGNDYTHSLLSGKGINVIRPFIPIVTRAIAQAVHELVELGARTVMIPSVLPLGCAASYLTYYPSPNPDDYDELGCLIWVNEMASYHNQLLQQQLAHVRELHPYANIVFADIYNAAMEVYQGPDTYGFSGGALRACCGGGGPYNFNTSAQCGNEGATACDNPSSYVNWDGYHLTEAAYQCITTGLLEGPYTYPRMKNLCRFDSRKTSRVAQI
Turning to B1, the Michaelis constant (Km) was determined as 3.5 mM.
